Biological target: HLA-A*02:01 (Homo sapiens, UniProt P04439, D140Y/D185E/D98H/E176V/E277Q/G131W/G231S/I119V/I121R/I166T/I218V/L300P/L318F/N151K/N90K/P208A/P217A/Q86G/Q94H/R138H/R169H/T345S)
Experiment: MHC binding assay (UV-ligand exchange, ELISA, peptide exchange yield)
Conditions: binding of HLA-class I restricted peptides to HLA-A*02:01
Method in brief: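 Exchange yield was quantified as stabilized β2m-containing complex: monomers diluted 100-fold bound to streptavidin-coated wells, probed with HRP-conjugated anti-β2m, read at 450 nm after TMB. Complexes had been generated by UV cleavage of a photolabile ligand and replacement with the candidate peptide.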

**Q.** Which “Peptide exchange (MHC class I binding score, peptide exchange yield)” value (“Peptide exchange” below) does the source give for “305 (SIANFSEFYV; listed as Homo sapiens) [compound 305]” here?
**A.** ″++++″ (≥75% = ++++)

**Q.** With “488 (FLAEDPKVTL; listed as Homo sapiens) [compound 488]” as the substance, how does the “Peptide exchange” value read?
**A.** ″+++″ (≥50% = +++)

**Q.** Which “Peptide exchange” value does the source give for “508 (ILAQEQLVVGV; listed as Homo sapiens) [compound 508]” here?
**A.** ″+++″ (≥50% = +++)

**Q.** “262 (LLWGDLIWL; listed as Homo sapiens) [compound 262]” was tested. Which “Peptide exchange” value did it give?
**A.** ″+++″ (≥50% = +++)

**Q.** How did the “Peptide exchange” value turn out when “635 (SLDSTLHAV; listed as Homo sapiens) [compound 635]” was run?
**A.** ″+++″ (≥50% = +++)

**Q.** “354 (LILEGVDTV; listed as Homo sapiens) [compound 354]” was tested. Which “Peptide exchange” value did it give?
**A.** ″++″ (≥20% = ++)

**Q.** Which “Peptide exchange” value does the source give for “363 (KVLDVSDLESV; listed as Homo sapiens) [compound 363]” here?
**A.** ″++″ (≥20% = ++)

**Q.** Which “Peptide exchange” value does the source give for “341 (SQIALNEKLVNL; listed as Homo sapiens) [compound 341]” here?
**A.** ″+++″ (≥50% = +++)

**Q.** How did the “Peptide exchange” value turn out when “472 (KLLEVSDDPQV; listed as Homo sapiens) [compound 472]” was run?
**A.** ″+++″ (≥50% = +++)

**Q.** Which “Peptide exchange” value does the source give for “434 (KVSNSGITRV; listed as Homo sapiens) [compound 434]” here?
**A.** ″++″ (≥20% = ++)

**Q.** For “525 (VLLEAGEGLVTI; listed as Homo sapiens) [compound 525]”, which “Peptide exchange” value is on record?
**A.** ″+++″ (≥50% = +++)

**Q.** How did the “Peptide exchange” value turn out when “5 (HLTEVYPEL; listed as Homo sapiens) [compound 5]” was run?
**A.** ″+++″ (≥50% = +++)

**Q.** For “250 (ALSEEGLLVYL; listed as Homo sapiens) [compound 250]”, which “Peptide exchange” value is on record?
**A.** ″+++″ (≥50% = +++)

**Q.** How did the “Peptide exchange” value turn out when “191 (LLQEGQALEYV; listed as Homo sapiens) [compound 191]” was run?
**A.** ″++″ (≥20% = ++)

**Q.** For “486 (AVMESIQGV; listed as Homo sapiens) [compound 486]”, which “Peptide exchange” value is on record?
**A.** ″+++″ (≥50% = +++)

**Q.** With “23 (VLLDDIFAQL; listed as Homo sapiens) [compound 23]” as the substance, how does the “Peptide exchange” value read?
**A.** ″+++″ (≥50% = +++)

**Q.** For “358 (ALDEYTSEL; listed as Homo sapiens) [compound 358]”, which “Peptide exchange” value is on record?
**A.** ″++++″ (≥75% = ++++)

**Q.** For “450 (FMIDASVHPTL; listed as Homo sapiens) [compound 450]”, which “Peptide exchange” value is on record?
**A.** ″+++″ (≥50% = +++)

**Q.** “409 (LLDAMNYHL; listed as Homo sapiens) [compound 409]” was tested. Which “Peptide exchange” value did it give?
**A.** ″++″ (≥20% = ++)

**Q.** “236 (GLLEAKVSL; listed as Homo sapiens) [compound 236]” was tested. Which “Peptide exchange” value did it give?
**A.** ″+++″ (≥50% = +++)

**Q.** For “552 (GLLDLPFRVGV; listed as Homo sapiens) [compound 552]”, which “Peptide exchange” value is on record?
**A.** ″++++″ (≥75% = ++++)

**Q.** For “568 (TLYDIAHTPGV; listed as Homo sapiens) [compound 568]”, which “Peptide exchange” value is on record?
**A.** ″++++″ (≥75% = ++++)

**Q.** With “389 (LLADVTHLL; listed as Homo sapiens) [compound 389]” as the substance, how does the “Peptide exchange” value read?
**A.** ″++″ (≥20% = ++)

**Q.** For “80 (FLYDNLVESL; listed as Homo sapiens) [compound 80]”, which “Peptide exchange” value is on record?
**A.** ″++″ (≥20% = ++)

**Q.** With “6 (VLVSDGVHSV; listed as Homo sapiens) [compound 6]” as the substance, how does the “Peptide exchange” value read?
**A.** ″+++″ (≥50% = +++)

**Q.** “361 (ALYELEGTTV; listed as Homo sapiens) [compound 361]” was tested. Which “Peptide exchange” value did it give?
**A.** ″+++″ (≥50% = +++)

**Q.** Which “Peptide exchange” value does the source give for “485 (NVPDSFNEV; listed as Homo sapiens) [compound 485]” here?
**A.** ″+++″ (≥50% = +++)

**Q.** For “13 (YLMDESLNL; listed as Homo sapiens) [compound 13]”, which “Peptide exchange” value is on record?
**A.** ″+++″ (≥50% = +++)

**Q.** For “328 (ALNDQVFEI; listed as Homo sapiens) [compound 328]”, which “Peptide exchange” value is on record?
**A.** ″+++″ (≥50% = +++)

**Q.** Which “Peptide exchange” value does the source give for “447 (QLVPALAKV; listed as Homo sapiens) [compound 447]” here?
**A.** ″++″ (≥20% = ++)

**Q.** Which “Peptide exchange” value does the source give for “542 (RVWDISTVSSV; listed as Homo sapiens) [compound 542]” here?
**A.** ″+++″ (≥50% = +++)

**Q.** For “351 (SLIPNLRNV; listed as Homo sapiens) [compound 351]”, which “Peptide exchange” value is on record?
**A.** ″+++″ (≥50% = +++)

**Q.** With “580 (LLMENAERV; listed as Homo sapiens) [compound 580]” as the substance, how does the “Peptide exchange” value read?
**A.** ″++″ (≥20% = ++)

**Q.** For “616 (VLIDEVESL; listed as Homo sapiens) [compound 616]”, which “Peptide exchange” value is on record?
**A.** ″+++″ (≥50% = +++)

**Q.** “428 (KLGHTDILVGV; listed as Homo sapiens) [compound 428]” was tested. Which “Peptide exchange” value did it give?
**A.** ″++″ (≥20% = ++)

**Q.** For “47 (ILLSVPLLVV; listed as Homo sapiens) [compound 47]”, which “Peptide exchange” value is on record?
**A.** ″++″ (≥20% = ++)

**Q.** For “263 (LLVSNLDFGV; listed as Homo sapiens) [compound 263]”, which “Peptide exchange” value is on record?
**A.** ″+++″ (≥50% = +++)

**Q.** “334 (TLTKVLVAL; listed as Homo sapiens) [compound 334]” was tested. Which “Peptide exchange” value did it give?
**A.** ″+++″ (≥50% = +++)

**Q.** For “205 (SLYPGTETMGL; listed as Homo sapiens) [compound 205]”, which “Peptide exchange” value is on record?
**A.** ″+++″ (≥50% = +++)

**Q.** For “228 (AMQEYIAVV; listed as Homo sapiens) [compound 228]”, which “Peptide exchange” value is on record?
**A.** ″++″ (≥20% = ++)

**Q.** How did the “Peptide exchange” value turn out when “324 (FLYDEIEAEV; listed as Homo sapiens) [compound 324]” was run?
**A.** ″+++″ (≥50% = +++)

**Q.** “177 (YLLPEEYTSTL; listed as Homo sapiens) [compound 177]” was tested. Which “Peptide exchange” value did it give?
**A.** ″++++″ (≥75% = ++++)

**Q.** Which “Peptide exchange” value does the source give for “314 (ALIAEGIALV; listed as Homo sapiens) [compound 314]” here?
**A.** ″+++″ (≥50% = +++)

**Q.** “249 (LLDGFLVNV; listed as Homo sapiens) [compound 249]” was tested. Which “Peptide exchange” value did it give?
**A.** ″+++″ (≥50% = +++)

**Q.** With “559 (VTVPPGPSL; listed as Homo sapiens) [compound 559]” as the substance, how does the “Peptide exchange” value read?
**A.** ″++″ (≥20% = ++)

**Q.** Which “Peptide exchange” value does the source give for “282 (LLADVVPTT; listed as Homo sapiens) [compound 282]” here?
**A.** ″+++″ (≥50% = +++)

Reference: patent US10227388B2, “Peptides and combination of peptides for use in immunotherapy against non-small cell lung cancer and other cancers” (immatics biotechnologies GmbH, priority 2015, dated 2019)
